Reference: US20250186597A1, “TARGETED IMMUNE ACTIVATION WITH IL-18 IMMUNOCYTOKINES” (BRIGHT PEAK THERAPEUTICS AG, priority 2023, published 2025)

What was measured:
[1] = target: native IL-18 wild-type (SEQ ID NO: 1) (human) (UniProt Q14116); assay: cell-based or functional assay
[2] = target: human IL-18BP-His (human) (UniProt O95998); assay: AlphaLISA detection of free IL-18BP after incubation with the IL-18 analyte
[3] = target: human IL-18BP-His (human) (UniProt O95998); assay: AlphaLISA for free IL-18BP; test item titrated (x axis) and pre-incubated with human IL-18BP-His, unbound IL-18BP detected
[4] = target: human IL-18BP-His (human) (UniProt O95998); assay: AlphaLISA detection of free IL-18BP
[5] = target: recombinant Human Fc gamma RI/CD64 Protein (R&D systems, 1257-FC-050, CF) (human) (UniProt P12314); assay: ELISA; antibody coated, Fc gamma receptor titrated
Sequence of recombinant Human Fc gamma RI/CD64 Protein (R&D systems, 1257-FC-050, CF) (human) (P12314 16-288 limits assumed): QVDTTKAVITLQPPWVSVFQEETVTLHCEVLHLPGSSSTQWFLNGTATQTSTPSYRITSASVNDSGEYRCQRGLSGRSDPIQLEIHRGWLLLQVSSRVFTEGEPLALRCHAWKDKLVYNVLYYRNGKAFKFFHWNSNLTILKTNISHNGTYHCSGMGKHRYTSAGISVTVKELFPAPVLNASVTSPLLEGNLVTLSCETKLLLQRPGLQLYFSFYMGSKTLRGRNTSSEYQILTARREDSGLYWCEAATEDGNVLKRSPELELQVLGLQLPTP

[6] = target: recombinant Human Fc gamma RIIA/CD32a (H167) Protein (R&D systems, 9595-CD-050, CF) (human) (UniProt P12318); assay: ELISA; antibody coated, Fc gamma receptor titrated
Sequence of recombinant Human Fc gamma RIIA/CD32a (H167) Protein (R&D systems, 9595-CD-050, CF) (human) (P12318 36-218 limits assumed): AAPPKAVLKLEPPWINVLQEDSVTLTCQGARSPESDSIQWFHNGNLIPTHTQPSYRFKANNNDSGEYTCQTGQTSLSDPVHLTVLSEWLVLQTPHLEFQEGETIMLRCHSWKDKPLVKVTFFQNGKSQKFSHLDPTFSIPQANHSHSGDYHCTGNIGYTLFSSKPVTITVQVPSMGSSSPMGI

[7] = target: recombinant Human Fc gamma RIIB/CD32b Avi-tag Protein (R&D systems, AVI1875-050, CF) (human) (UniProt P31994); assay: ELISA; antibody coated, Fc gamma receptor titrated
Sequence of recombinant Human Fc gamma RIIB/CD32b Avi-tag Protein (R&D systems, AVI1875-050, CF) (human) (P31994 46-217 limits assumed): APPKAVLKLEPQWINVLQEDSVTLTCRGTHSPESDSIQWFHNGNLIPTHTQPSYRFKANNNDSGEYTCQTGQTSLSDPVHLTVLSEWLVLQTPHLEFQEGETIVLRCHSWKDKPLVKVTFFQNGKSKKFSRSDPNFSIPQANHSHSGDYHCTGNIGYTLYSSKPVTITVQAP

[8] = target: recombinant Human Fc gamma RIIIA/CD16a Protein (R&D systems, 4325-FC-050; CF) (human) (UniProt P08637); assay: ELISA; antibody coated, Fc gamma receptor titrated
Sequence of recombinant Human Fc gamma RIIIA/CD16a Protein (R&D systems, 4325-FC-050; CF) (human) (P08637 17-208 limits assumed): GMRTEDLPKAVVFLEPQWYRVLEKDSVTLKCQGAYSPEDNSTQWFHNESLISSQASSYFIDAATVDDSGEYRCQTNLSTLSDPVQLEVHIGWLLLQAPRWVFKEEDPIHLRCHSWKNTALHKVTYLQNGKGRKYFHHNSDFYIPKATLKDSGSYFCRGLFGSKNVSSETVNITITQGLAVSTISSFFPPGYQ

[9] = target: recombinant biotinylated human FcRn (human) (UniProt P55899); assay: AlphaLISA competition at pH 6; competitor: human IgG on acceptor beads
Sequence of recombinant biotinylated human FcRn (human) (P55899 24-297 limits assumed, chain 1 of 2): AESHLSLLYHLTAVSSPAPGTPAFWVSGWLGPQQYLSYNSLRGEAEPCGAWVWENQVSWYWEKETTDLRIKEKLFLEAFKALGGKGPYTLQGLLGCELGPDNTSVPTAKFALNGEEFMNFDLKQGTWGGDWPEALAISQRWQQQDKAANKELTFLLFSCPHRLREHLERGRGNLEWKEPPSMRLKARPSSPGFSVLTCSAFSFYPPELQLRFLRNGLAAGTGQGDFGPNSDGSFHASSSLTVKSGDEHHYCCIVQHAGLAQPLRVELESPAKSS
Sequence of recombinant biotinylated human FcRn (human) (chain, as listed by the source limits assumed, chain 2 of 2): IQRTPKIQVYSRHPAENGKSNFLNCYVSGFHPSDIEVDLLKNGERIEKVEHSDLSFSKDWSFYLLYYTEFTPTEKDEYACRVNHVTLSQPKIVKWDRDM

[10] = target: recombinant biotinylated human FcRn (human) (UniProt P55899); assay: AlphaLISA competition at pH 6; test molecule titrated (x axis) against human IgG-conjugated acceptor beads for biotinylated human FcRn on streptavidin donor beads

Sequence of human IL-18BP-His (human) (O95998 31-194): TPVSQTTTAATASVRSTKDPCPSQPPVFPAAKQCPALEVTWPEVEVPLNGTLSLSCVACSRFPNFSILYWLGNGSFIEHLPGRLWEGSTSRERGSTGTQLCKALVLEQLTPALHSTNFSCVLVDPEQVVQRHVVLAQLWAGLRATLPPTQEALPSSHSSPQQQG

Q: With “His-tag human IL-18 binding protein isoform a (IL-18BPa; SinoBiologicals #10357-H08H) (from UniProt O95998 31-194)” as the substance, how does the IC50 of IL-18BP-mediated inhibition of IFNγ secretion, PD-1negative parental NK-92 cells [1] read?
A: The IC50 of IL-18BP-mediated inhibition of IFNγ secretion, PD-1negative parental NK-92 cells was 0.00297 µM.

Q: With “IL-18 polypeptide of SEQ ID NO: 31 (C38A, C76A, C127A) (from UniProt Q14116 37-193) (ligand)” as the substance, how does the Kd [2] read?
A: The Kd was 0.000103 µM.

Q: What about the IC50 (read off the curve) [3] of the same substance?
A: The IC50 (read off the curve) was 0.0001 µM.

Q: For “IL-18 polypeptide of SEQ ID NO: 54 (E06K, K53A, C38S, C68S, C76S, C127S, K70C) (from UniProt Q14116 37-193) (ligand)”, which Kd [4] is on record?
A: Its Kd is 0.446 µM.

Q: “IL-18 polypeptide of SEQ ID NO: 55 (K53A, T63A, C38S, C68S, C76S, C127S, K70C) (from UniProt Q14116 37-193) (ligand)” was tested. Which Kd [4] did it give?
A: Its Kd is 0.913 µM.

Q: Which Kd [4] does the source give for “IL-18 polypeptide of SEQ ID NO: 56 (E6K, K53A, C38S, C76S, C127S) (from UniProt Q14116 37-193) (ligand)” here?
A: Its Kd is 0.435 µM.

Q: “IL-18 polypeptide of SEQ ID NO: 57 (E6K, C38S, K53A) (from UniProt Q14116 37-193) (ligand)” was tested. Which Kd [4] did it give?
A: The Kd was 0.0502 µM.

Q: For “IL-18 polypeptide of SEQ ID NO: 59 (E6K, C38A, K53A) (from UniProt Q14116 37-193) (ligand)”, which Kd [4] is on record?
A: The Kd was 0.036 µM.

Q: “IL-18 polypeptide of SEQ ID NO: 60 (E6K, C38Q, K53A) (from UniProt Q14116 37-193) (ligand)” was tested. Which Kd [4] did it give?
A: The Kd was 0.0248 µM.

Q: With “IL-18 polypeptide of SEQ ID NO: 62 (E6K, C38A, K53A, C127A) (from UniProt Q14116 37-193) (ligand)” as the substance, how does the Kd [4] read?
A: Its Kd is 0.0696 µM.

Q: LZM-009 (antibody) was tested. Which Kd [5] did it give?
A: Its Kd is 0.000315 µM.

Q: What about the Kd [6] of the same substance?
A: The Kd was 1.35 µM.

Q: What about the Kd [7] of the same substance?
A: The Kd was 2.63 µM.

Q: What about the Kd [8] of the same substance?
A: The Kd was 1.71 µM.

Q: And the Kd [9]?
A: The Kd was 0.006 µM.

Q: What about the IC50 (read off the curve) [10] of the same substance?
A: The IC50 (read off the curve) was 0.005 µM.

Q: What does the source list for “native IL-18 wild-type (SEQ ID NO: 1) (from UniProt Q14116 37-193) (ligand)”?
A: Kd [4]: 0.00067 µM; Kd [2]: 0.000411 µM; IC50 (read off the curve) [3]: 0.0004 µM
